T1: PEX5-CAT2 complex (Atto-488-labelled CAT2 saturated with PEX5) (Arabidopsis thaliana, UniProt P25819 1-492; Q9FMA3 1-728, labelled with Atto-488 (protein to dye 1:1))
T1 construct: catalase 2 (CAT2), Arabidopsis thaliana, full-length recombinant protein; as the chain of m2; PEX5, peroxisomal PTS1 import receptor, Arabidopsis thaliana, full-length recombinant protein; as the chain of m3
T1 sequence (looked up) 1: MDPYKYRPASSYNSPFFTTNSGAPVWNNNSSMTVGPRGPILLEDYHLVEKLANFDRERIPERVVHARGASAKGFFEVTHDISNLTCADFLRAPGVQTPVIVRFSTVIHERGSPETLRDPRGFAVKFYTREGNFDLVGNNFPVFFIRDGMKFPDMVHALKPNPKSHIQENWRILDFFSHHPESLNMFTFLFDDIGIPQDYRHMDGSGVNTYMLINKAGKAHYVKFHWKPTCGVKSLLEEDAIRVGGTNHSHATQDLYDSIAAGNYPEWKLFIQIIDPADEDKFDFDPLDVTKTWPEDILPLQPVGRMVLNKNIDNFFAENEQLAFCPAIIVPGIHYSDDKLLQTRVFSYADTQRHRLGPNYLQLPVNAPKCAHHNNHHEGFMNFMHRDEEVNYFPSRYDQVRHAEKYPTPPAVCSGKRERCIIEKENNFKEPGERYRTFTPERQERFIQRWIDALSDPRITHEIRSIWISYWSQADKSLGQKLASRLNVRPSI
T1 sequence (looked up) 2: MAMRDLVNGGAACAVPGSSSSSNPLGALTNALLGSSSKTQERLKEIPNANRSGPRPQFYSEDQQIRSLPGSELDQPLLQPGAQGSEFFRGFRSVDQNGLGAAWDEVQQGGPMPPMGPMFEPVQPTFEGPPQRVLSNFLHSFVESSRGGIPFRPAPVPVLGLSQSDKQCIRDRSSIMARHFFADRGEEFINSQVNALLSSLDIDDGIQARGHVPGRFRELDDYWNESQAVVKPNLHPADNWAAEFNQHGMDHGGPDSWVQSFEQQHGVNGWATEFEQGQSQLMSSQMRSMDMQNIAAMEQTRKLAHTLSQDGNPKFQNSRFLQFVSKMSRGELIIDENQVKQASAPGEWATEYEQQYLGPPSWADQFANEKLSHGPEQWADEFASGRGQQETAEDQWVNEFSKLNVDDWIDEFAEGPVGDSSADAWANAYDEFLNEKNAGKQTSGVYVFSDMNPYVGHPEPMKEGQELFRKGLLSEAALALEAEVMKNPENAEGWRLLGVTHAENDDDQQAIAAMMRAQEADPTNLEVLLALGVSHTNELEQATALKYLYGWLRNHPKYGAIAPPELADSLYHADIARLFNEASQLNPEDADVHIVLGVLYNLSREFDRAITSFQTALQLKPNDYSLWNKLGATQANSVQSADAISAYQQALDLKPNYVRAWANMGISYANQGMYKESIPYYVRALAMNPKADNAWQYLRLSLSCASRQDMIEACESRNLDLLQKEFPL

T2: peroxisome import receptor PEX5, recombinant Arabidopsis thaliana, full-length (Arabidopsis thaliana, UniProt Q9FMA3 1-728, unlabelled in MST; labelled with Atto-647 in the condensate imaging)
T2 construct: PEX5, peroxisomal PTS1 import receptor, Arabidopsis thaliana, full-length recombinant protein; cloning not described; The cloning of the PEX5 construct is not described in the methods
T2 sequence (looked up): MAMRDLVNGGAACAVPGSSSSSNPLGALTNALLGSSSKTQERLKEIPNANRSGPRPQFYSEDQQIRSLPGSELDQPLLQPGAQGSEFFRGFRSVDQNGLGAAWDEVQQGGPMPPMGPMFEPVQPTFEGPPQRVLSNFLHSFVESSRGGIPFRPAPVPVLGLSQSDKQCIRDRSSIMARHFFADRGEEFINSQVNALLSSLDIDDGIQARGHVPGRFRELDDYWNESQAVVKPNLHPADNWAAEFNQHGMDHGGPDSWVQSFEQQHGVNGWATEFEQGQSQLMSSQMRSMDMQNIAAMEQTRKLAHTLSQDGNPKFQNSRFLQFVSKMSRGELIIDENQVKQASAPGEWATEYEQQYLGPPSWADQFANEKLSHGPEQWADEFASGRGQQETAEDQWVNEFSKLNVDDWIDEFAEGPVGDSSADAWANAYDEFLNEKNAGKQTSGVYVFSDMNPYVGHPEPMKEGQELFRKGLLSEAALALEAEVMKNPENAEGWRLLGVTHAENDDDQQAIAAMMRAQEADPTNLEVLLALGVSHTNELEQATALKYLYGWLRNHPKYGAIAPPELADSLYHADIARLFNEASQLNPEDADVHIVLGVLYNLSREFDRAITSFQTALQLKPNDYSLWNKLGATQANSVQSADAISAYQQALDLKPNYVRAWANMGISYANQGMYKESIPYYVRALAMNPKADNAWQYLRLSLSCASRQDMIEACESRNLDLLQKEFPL


Key:
[1] = target: catalase 2 (CAT2), recombinant Arabidopsis thaliana, full-length (Arabidopsis thaliana) (UniProt P25819)
[2] = target: T1, PEX5-CAT2 complex (Atto-488-labelled …); experiment: MST; Atto-488-labelled CAT2 saturated with PEX5 (10-fold above the affinity value) before titration of LSD1; 25°C, 20 mM HEPES pH 7.5, 20 mM NaCl, 0.05% Tween 20; settings: both partners purified
[3] = target: T2, peroxisome import receptor PEX5, …; experiment: MST; 100 nM Atto-488-labelled CAT2, unlabelled partner serially diluted; 25°C, 20 mM HEPES pH 7.5, 20 mM NaCl, 0.05% Tween 20; Monolith NT.115; settings: both partners purified

| catalase activity (change of 240 nm absorbance in 30 mM H2O2) of 10 μM CAT2 mixed with 10 μM LSD1 to form LSD1-CAT2 condensates, against CAT2 alone [1] [fold] | Kd [2] [nM] | Kd [3] [nM] | Binder |
| --- | --- | --- | --- |
| 2.5 | 136 ± 39.8 | – | LESION SIMULATING DISEASE1 (LSD1), recombinant Arabidopsis thaliana, full-length (natural protein, UniProt P94077-2 1-184, looked up, unlabelled when titrated in MST; labelled with Atto-550 in the condensate imaging, LSD1 (LESION SIMULATING DISEASE1), Arabidopsis thaliana, full-length, cloned into pET28b with NdeI and NotI; pET28b with NdeI cloning would usually add an N-terminal His tag (surmise; source: dialysed)) MQDQLVCHGCRNLLMYPRGASNVRCALCNTINMVPPPPPPHDMAHIICGGCRTMLMYTRGASSVRCSCCQTTNLVPAHSNQVAHAPSSQVAQINCGHCRTTLMYPYGASSVKCAVCQFVTNVNMSNGRVPLPTNRPNGTACPPSTSTSTPPSQTQTVVVENPMSVDESGKLVSNVVVGVTTDKK |
| – | – | 2350 ± 279 | catalase 2 (CAT2), recombinant Arabidopsis thaliana, full-length (enzyme, UniProt P25819 1-492, looked up, labelled with Atto-488 (protein to dye 1:1) in MST and in the condensate imaging, catalase 2 (CAT2), Arabidopsis thaliana, full-length recombinant protein; cloned into pET28b with NdeI and XhoI; pET28b with NdeI cloning would usually add an N-terminal His tag (surmise)) MDPYKYRPASSYNSPFFTTNSGAPVWNNNSSMTVGPRGPILLEDYHLVEKLANFDRERIPERVVHARGASAKGFFEVTHDISNLTCADFLRAPGVQTPVIVRFSTVIHERGSPETLRDPRGFAVKFYTREGNFDLVGNNFPVFFIRDGMKFPDMVHALKPNPKSHIQENWRILDFFSHHPESLNMFTFLFDDIGIPQDYRHMDGSGVNTYMLINKAGKAHYVKFHWKPTCGVKSLLEEDAIRVGGTNHSHATQDLYDSIAAGNYPEWKLFIQIIDPADEDKFDFDPLDVTKTWPEDILPLQPVGRMVLNKNIDNFFAENEQLAFCPAIIVPGIHYSDDKLLQTRVFSYADTQRHRLGPNYLQLPVNAPKCAHHNNHHEGFMNFMHRDEEVNYFPSRYDQVRHAEKYPTPPAVCSGKRERCIIEKENNFKEPGERYRTFTPERQERFIQRWIDALSDPRITHEIRSIWISYWSQADKSLGQKLASRLNVRPSI |

Reference: article PMC12371180, “Redox regulation of LSD1/CATALASE 2 phase separation condensates controls location and functions” (The New Phytologist, 2025)
